Test system: H3K4 histone substrate (histone H3)

Substance: SETD7-dCas9 protein (purified from pET-SETD7-dCas9-NLS-6×His)
- in vitro H3K4 methylation activity: the SETD7-dCas9 protein was confirmed to have H3K4 methylation activity with H3K4 histone substrate through in vitro analysis

From patent US20260092267
